Experimental data: patent US20180002383A1

How the values were obtained:
[1] = target: human GLUT-1 glucose transporter, endogenous on cells (the 'HTLV receptor' on HeLa, 293T, Jurkat cells and human erythrocytes) (human) (UniProt P11166); experiment: cell-based or functional assay
[2] = target: human GLUT-1 glucose transporter, endogenous on cells (the 'HTLV receptor' on HeLa, 293T, Jurkat cells and human erythrocytes) (human) (UniProt P11166)

Chain of human GLUT-1 glucose transporter, endogenous on cells (the 'HTLV receptor' on HeLa, 293T, Jurkat cells and human erythrocytes) (human) (P11166 whole entry): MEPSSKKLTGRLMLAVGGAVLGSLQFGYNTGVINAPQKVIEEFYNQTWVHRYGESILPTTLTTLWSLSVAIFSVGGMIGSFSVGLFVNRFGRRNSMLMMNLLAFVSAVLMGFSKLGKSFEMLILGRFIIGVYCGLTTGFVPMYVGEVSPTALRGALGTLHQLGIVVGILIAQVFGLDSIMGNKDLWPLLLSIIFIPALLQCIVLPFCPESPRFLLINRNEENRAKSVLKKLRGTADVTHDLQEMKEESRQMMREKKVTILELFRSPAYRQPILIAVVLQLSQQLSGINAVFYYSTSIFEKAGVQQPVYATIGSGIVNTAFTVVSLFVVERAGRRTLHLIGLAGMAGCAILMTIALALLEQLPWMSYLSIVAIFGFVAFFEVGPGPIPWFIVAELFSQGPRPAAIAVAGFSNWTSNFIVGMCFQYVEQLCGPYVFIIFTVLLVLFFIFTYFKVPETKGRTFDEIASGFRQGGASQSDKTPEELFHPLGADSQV

In the case of “H183FEnv, non-syncytial chimeric envelope with the N-terminal 183 amino acids of the HTLV-1 receptor”, the Lactate accumulation in culture supernatant [1] is reported as 3 fold lower.

“HTLV-2 RBD (H2RBD), first 178 residues of HTLV2-SU fused to a C-terminal rabbit IgG Fc tag (rFc) (from UniProt P01868 98-324) (Fc fusion)” was tested, and the 2-deoxyglucose uptake (fold decrease) [1] was 4 and the HTLV titers (infection of 293T cells by MLV particles pseudotyped with HTLV-2 envelope) [1] was 2 logs.

Work on “HTLV-1 RBD (H1RBD), first 215 residues of HTLV-1 SU fused to a C-terminal rabbit IgG Fc tag (rFc) (Fc fusion)” yielded a fold increase of binding after overnight culture without glucose [2] of 2 fold, a 2-deoxyglucose uptake (fold decrease) [1] of 4 and a Lactate accumulation in culture supernatant [1] of 3 fold lower.
